Measured values from paper PMC13489962, “Small-molecule modulation of β-arrestins” (Nature, 2026).
Blank lines part the entries; values can stand above or below the substance they belong to.

Key:
[1] = system: Gi-mediated inhibition of adenylyl cyclase (D2R, M2R); assay: GloSensor cAMP Gi activity assay at D2R or M2R; assay type: cell-based; conditions: modulators 50 μM, 15 min; PTX 100 ng/mL overnight; forskolin 2 μM
Protocol: Gi-mediated inhibition of adenylyl cyclase was assessed using the GloSensor cAMP bioluminescence biosensor (Promega). HEK293 cells were transiently transfected with D2R or M2R together with the GloSensor cAMP reporter construct, using FuGENE 6 per the manufacturer’s protocol. Cells were seeded into poly-D-lysine-coated white clear-bottom 96-well plates at 60,000 cells per well and cultured for 24 h. GloSensor reagent was added per the manufacturer’s instructions and cells were equilibrated for 1 h at room temperature. Where indicated, pertussis toxin (PTX; 100 ng ml^−1) was applied overnight as a positive control for Gi blockade. Compounds (Cmpd-5, Cmpd-46 or Cmpd-64; 50 μM) or vehicle (DMSO) in HBSS supplemented with 20 mM HEPES (pH 7.4) and 0.05% BSA were applied for 15 min at room temperature. Cells were stimulated with forskolin (2 μM, 5 min), followed by concentration-response stimulation with quinpirole (D2R) or acetylcholine (M2R). Luminescence was recorded every 5 min over 30 min using a CLARIOstar microplate reader (BMG Labtech). Forskolin-stimulated cAMP, quantified at 10 min after agonist addition, was normalized to the maximal forskolin response per condition. Gi activity was derived from the inhibitory plateau and expressed as a percentage of the DMSO plus agonist control.

[2] = molecular target: phosphorylated β2V2R (pβ2V2R): N-terminal Flag-tagged T4 lysozyme fusion-β2V2R (β2AR residues 1–341 fused to V2R residues 328–372) (UniProt P07550)
[3] = molecular target: β2V2R fused to the ProLink tag (inactive portion of β-galactosidase), in U2OS PathHunter cells; assay: split reporter (BiFC, NanoBiT); PathHunter β-galactosidase enzyme fragment complementation in U2OS cells co-expressing βARR2 (enzyme acceptor) and β2V2R (ProLink); modulators or vehicle 30 min, then isoproterenol 60 min at 37 °C

Chain of βARR2 fused to the enzyme acceptor (EA) portion of β-galactosidase, in U2OS PathHunter cells (P32121 whole entry, the tested form may be a part): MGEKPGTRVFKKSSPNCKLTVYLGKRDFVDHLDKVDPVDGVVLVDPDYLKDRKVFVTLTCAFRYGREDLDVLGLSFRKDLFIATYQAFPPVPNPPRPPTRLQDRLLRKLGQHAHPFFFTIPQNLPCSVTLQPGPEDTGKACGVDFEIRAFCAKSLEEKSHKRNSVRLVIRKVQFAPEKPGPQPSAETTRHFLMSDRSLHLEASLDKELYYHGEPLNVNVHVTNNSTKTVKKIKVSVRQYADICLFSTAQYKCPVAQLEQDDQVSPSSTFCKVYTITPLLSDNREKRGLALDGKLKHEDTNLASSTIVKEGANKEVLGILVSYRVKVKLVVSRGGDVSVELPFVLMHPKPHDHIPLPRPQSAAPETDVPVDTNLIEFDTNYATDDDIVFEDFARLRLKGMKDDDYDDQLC
Chain of β-arrestin2 (βARR2), rat, C terminus truncated at amino acid 394 (P29067 1-394): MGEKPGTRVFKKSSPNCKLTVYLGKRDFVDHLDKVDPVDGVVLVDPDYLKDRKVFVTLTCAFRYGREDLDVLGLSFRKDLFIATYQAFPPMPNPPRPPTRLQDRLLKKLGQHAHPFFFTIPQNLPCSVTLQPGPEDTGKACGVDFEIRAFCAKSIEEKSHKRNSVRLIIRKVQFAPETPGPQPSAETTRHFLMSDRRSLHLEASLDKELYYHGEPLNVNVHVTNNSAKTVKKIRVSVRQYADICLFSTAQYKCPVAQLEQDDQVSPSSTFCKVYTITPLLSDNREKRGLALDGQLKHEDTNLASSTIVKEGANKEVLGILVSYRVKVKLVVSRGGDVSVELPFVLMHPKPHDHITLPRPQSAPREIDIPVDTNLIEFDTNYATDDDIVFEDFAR

Substance: pertussis toxin
effect on agonist-induced, Gi-mediated cAMP reduction at D2R or M2R [1]: abolished this response entirely

reduction of β-arrestin-mediated high-affinity [^3H]-Fen binding to pβ2V2R by Cmpd-5, Cmpd-46 and Cmpd-64, each (100 μM) [2]: 40%
Substance: β-arrestin2 (βARR2), rat, C terminus truncated at amino acid 394 (from UniProt P29067 1-394) (domain or fragment)

reduction of Emax of Iso-induced recruitment with 50 μM Cmpd-46 [3]: 77.3%
reduction of Emax of Iso-induced recruitment with 50 μM Cmpd-64 [3]: 74.4%
Substance: βARR2 fused to the enzyme acceptor (EA) portion of β-galactosidase, in U2OS PathHunter cells (from UniProt P32121 1-409) (natural protein)
